This is an account of results in paper PMC7536822, “Implications for tetraspanin-enriched microdomain assembly based on structures of CD9 with EWI-F” (Life Science Alliance, 2020).

In test [1] the target is T1, endogenous CD9 on HeLa cells (human (endogenous in HeLa), UniProt P21926 1-228).
T1 chain: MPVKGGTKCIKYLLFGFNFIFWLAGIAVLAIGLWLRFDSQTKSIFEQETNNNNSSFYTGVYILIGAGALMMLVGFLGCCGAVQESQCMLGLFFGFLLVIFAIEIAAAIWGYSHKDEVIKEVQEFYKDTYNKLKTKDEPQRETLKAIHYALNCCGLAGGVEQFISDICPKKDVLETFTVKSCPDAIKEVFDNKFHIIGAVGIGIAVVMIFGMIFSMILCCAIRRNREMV
Nature of the test: apparent, on HeLa cells.

The target of test [2] is T2, detergent-purified, full-length CD9 (wtCD9-3xSTREP) (human, UniProt P21926 1-228).
T2 chain: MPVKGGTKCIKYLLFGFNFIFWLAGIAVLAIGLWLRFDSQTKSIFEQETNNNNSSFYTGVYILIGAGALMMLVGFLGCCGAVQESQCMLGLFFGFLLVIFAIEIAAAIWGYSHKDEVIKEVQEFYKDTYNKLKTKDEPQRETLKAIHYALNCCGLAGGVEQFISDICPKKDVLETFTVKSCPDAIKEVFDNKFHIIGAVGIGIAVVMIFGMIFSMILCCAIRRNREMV
In words: ELISA; apparent, detergent-purified CD9.

The target of test [3] is T3, CD9–EWI-F_(ΔIg1-5) complex (human, UniProt P21926;Q9P2B2).
T3 construct: human CD9 (Tspan29), wild type, full length; as m12; human EWI-F, residues T685-D879, UniprotKB Q9P2B2; as m11; Preformed complex to which 4C8 was added; source: HEK293-EBNA GNT1- cells, co-expressed, co-purified in digitonin (Strep-Tactin), EndoHF treated; not shown: Strep-II, N-terminal, kept; copies: 2 + 2
In words: SEC; purified, EndoHF-treated CD9–EWI-F_(ΔIg1-5) complex incubated with a large excess of 4C8, Superdex 200 10/300 increase in 50 mM Tris pH 7.8, 150 mM NaCl, 0.08% digitonin, 4°C; SDS-PAGE of the peak. The note with it: both partners purified. (In general: SEC sorts molecules by how far they enter the pores of the column.)

For test [4], the target named is T4, detergent-purified, full-length CD9 (wtCD9-3xSTREP) (human, UniProt P21926).
T4 construct: human CD9 (Tspan29), wild type, full length; The construct section lists full-length CD9 with an N-terminal Strep-II tag or an N-terminal Strep3-GFP tag with a TEV site; also called wtCD9-3Strep; source: detergent-purified
In words: ELISA; 100 ng wtCD9-3Strep captured on Strep-Tactin coated wells; serial dilutions of nanobody for 2 h at rt in 2% BSA, 25 mM Hepes pH 7.5, 150 mM NaCl, 0.025% DDM; detection with anti-VHH and IRDye800CW; triplicate; apparent KD by one-site specific binding fit. The note with it: both partners purified. For orientation: ELISA stands for enzyme-linked immunosorbent assay.

The target in test [5] is T5, endogenous CD9 on HeLa cells (human (endogenous in HeLa), UniProt P21926).
T5 construct: CD9 (Tspan29) endogenous on HeLa cells; also called CD9 endogenously expressed on HeLa cells; cell-membrane embedded CD9; source: endogenous, on HeLa cells
Nature of the test: binding assay on cells in 96-well plates, infrared fluorescence read-out (anti-VHH, IRDye800CW, Odyssey); HeLa cells seeded in 96-well plates, serial dilutions of nanobody for 2 h at 4°C in 1% BSA, 25 mM Hepes pH 7.2 in DMEM; cells fixed with 4% formaldehyde before detection; triplicate; apparent KD by one-site specific binding fit. The note with it: one partner purified.

Another test deals with T6, full-length EWI-F (human, UniProt Q9P2B2 26-879).
T6 construct: human EWI-F, full length, UniprotKB Q9P2B2; All EWI-F constructs were cloned with an N-terminal cystatin signal peptide; Heterogeneously glycosylated; also called CD9-partner 1; prostaglandin F2 receptor negative regulator; source: HEK293-EBNA cells, co-transfected with Strep3-GFP-CD9-W6; in lysate, co-purified (Strep-Tactin, SEC)
T6 sequence (looked up): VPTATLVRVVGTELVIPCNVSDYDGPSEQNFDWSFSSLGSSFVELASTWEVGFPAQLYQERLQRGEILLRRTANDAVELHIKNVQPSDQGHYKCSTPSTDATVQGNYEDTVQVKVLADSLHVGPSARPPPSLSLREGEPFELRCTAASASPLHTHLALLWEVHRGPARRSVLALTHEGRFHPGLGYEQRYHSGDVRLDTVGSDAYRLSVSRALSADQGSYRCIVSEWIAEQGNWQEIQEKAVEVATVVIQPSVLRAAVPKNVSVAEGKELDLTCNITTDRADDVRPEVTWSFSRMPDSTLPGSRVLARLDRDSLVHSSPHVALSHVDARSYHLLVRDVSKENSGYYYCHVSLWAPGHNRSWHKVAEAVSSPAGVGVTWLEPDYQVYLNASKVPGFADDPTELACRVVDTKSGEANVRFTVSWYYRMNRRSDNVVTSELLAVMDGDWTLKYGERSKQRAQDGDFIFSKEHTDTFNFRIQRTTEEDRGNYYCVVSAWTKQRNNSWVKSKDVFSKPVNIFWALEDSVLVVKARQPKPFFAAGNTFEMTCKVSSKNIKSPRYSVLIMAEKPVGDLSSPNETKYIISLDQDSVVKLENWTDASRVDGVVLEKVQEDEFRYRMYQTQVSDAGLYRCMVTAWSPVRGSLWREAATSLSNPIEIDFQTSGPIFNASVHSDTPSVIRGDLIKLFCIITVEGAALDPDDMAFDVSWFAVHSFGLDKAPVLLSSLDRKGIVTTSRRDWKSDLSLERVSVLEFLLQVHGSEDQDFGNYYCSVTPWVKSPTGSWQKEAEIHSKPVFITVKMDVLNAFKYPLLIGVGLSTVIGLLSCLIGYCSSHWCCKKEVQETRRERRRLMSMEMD
In words: pull-down; Strep3-GFP-CD9-W6 co-transfected with EWI-F variants in 25 ml HEK293-EBNA cultures; lysis in 1% DDM, 0.5% digitonin; Strep-Tactin resin, washes in 0.08% digitonin, elution with desthiobiotin; SDS-PAGE. The note with it: partners not purified.

B1: anti-CD9 nanobody 4C8 (VHH)
VHH: EVQLVESGGGLVQAGGSLRLSCAASGRTFSDYVMGWFRQAPGKERTFVARIGWSGDLTYYADSVKGRFTISRDNAKNTVYLQMNSLKPEDTAIYYCAADERWGTGGKFDYWGQGTQVTVSS
notes: they are in the deposited structures PDB 6Z1Z (4C8 alone) and PDB 6Z20 (nanobody chain of CD9EC2-4C8); Selected from a phage library (Neviani et al, 2020); The thrombin-cleavable His tag was removed with thrombin; also called Nb 4C8; source: E. coli BL-21 Codon Plus (DE3)-RIL, periplasmic secretion, purified (HisTrap, desalting; thrombin treatment, Superdex75); not shown: His6, C-terminal, cleaved
Regarding B1, the Kd worked out at 0.59 nM in test [1] and 0.9 nM in test [2]. Further, the binding result in test [3], in test [4] and in test [5] was “binds” each time.

B2: anti-CD9 nanobody 4E8 (VHH)
VHH: EVQLVESGGRLVRTGGSLRLSCAASGRTFSNYVMGWFRQAPGKEREVVAAITWSGDITWHADFVKGRFTISRDNAKNTVYLQMNSLKPEDTAVYYCAATERWGLRAPADWGSWGQGTQVTVSS
notes: they are in the deposited structure PDB 6Z1V (nanobody chain of CD9EC2-4E8); Differs from 4C8 in CDR2 and CDR3; The thrombin-cleavable tag was not removed before crystallization; also called Nb 4E8; source: E. coli BL-21 Codon Plus (DE3)-RIL, periplasmic secretion, purified (HisTrap, desalting); not shown: His6, C-terminal, kept
In the case of B2, the Kd in test [1] worked out at 32.6 nM; in test [2], 2.01 nM. Besides, the binding result in test [4] and in test [5] was “binds” each time.

B3: N-Strep3-GFP-tagged CD9-W6 (natural protein, human, UniProt P21926 1-228, looked up)
chain: MPVKGGTKWIKYLLFGFNFIFWLAGIAVLAIGLWLRFDSQTKSIFEQETNNNNSSFYTGVYILIGAGALMMLVGFLGWWGAVQESQWMLGLFFGFLLVIFAIEIAAAIWGYSHKDEVIKEVQEFYKDTYNKLKTKDEPQRETLKAIHYALNCCGLAGGVEQFISDICPKKDVLETFTVKSCPDAIKEVFDNKFHIIGAVGIGIAVVMIFGMIFSMILWWAIRRNREMV
notes: human CD9 (Tspan29), full length, all palmitoylated cysteines mutated to tryptophan (CD9-W6); The Strep3-GFP tag is followed by a TEV-protease site; The results speak only of 'Strep-GFP-tagged CD9'; the methods name CD9-W6 for these experiments; also called Strep-GFP-tagged CD9; source: HEK293-EBNA cells, co-transfected with EWI-F variants; in lysate (DDM or DDM/digitonin), Strep-Tactin purified, …
Take B3: the binding result with full-length EWI-F is reported as “binds”.
